Laboratory results from US20220241406A1.

Target: IgE antibodies of four Pru p 7 reactive human sera
Test: ImmunoCAP IgE inhibition, inhibitor at 20 ug/mL in solution, rPru p 7 on solid phase, against dilution buffer control

percent inhibition of IgE binding to rPru p 7 (fourth serum): 80%
B1: recombinant Cup s GRPb (protein)
chain: AQIDCDKECNRRCSKASLHDRCLKYCGICCEKCHCVPPGTAGNEDVCPCYAHLKNSKGGHKCP
